Measured values reported in patent US20180371083A1.

Legend:
[1] = target: human TIGIT expressed on cells (CHO-K1 transfectants; Jurkat over-expressing human TIGIT) (human) (UniProt Q495A1); assay: cell-based or functional assay
[2] = target: human TIGIT-His protein (extracellular domain of human TIGIT fused to His tag) (human) (UniProt Q495A1); assay: SPR, Biacore T200; antibody captured on anti-mouse IgG, human TIGIT-His as analyte; 1:1 Langmuir fit
human TIGIT-His protein (extracellular domain of human TIGIT fused to His tag) (human), sequence (Q495A1 25-141 limits assumed): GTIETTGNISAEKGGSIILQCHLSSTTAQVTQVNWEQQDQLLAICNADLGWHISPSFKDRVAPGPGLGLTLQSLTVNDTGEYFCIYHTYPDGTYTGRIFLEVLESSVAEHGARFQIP

human TIGIT expressed on cells (CHO-K1 transfectants; Jurkat over-expressing human TIGIT) (human), sequence (Q495A1 25-244): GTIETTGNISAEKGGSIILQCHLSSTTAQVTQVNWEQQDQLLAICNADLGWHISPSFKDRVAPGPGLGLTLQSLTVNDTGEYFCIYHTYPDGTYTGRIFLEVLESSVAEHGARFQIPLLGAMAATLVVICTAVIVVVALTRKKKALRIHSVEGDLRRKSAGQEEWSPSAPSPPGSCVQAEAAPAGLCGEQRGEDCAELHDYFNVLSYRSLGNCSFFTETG

- EC50, rescue of IL-2 in hTIGIT-Jurkat / THP-1 co-culture with CD155-Fc or CD112-Fc [1]: 0.23 mg/L
- Kd [2]: 0.0363 nM
Substance: commercial anti-hTIGIT antibody, clone MBSA43 (eBioscience Cat#12-9500-42)
